This note sets out measurements from patent publication US20140271478A1 (University of California, published 2014).

What all share (experiment): cell staining of β8 amino acid swap constructs (175-180)
Test [1] has as its target T1, human integrin β8 swap construct KKMALF (SEQ ID NO:132) (human, UniProt P26012 43-769).
T1 sequence: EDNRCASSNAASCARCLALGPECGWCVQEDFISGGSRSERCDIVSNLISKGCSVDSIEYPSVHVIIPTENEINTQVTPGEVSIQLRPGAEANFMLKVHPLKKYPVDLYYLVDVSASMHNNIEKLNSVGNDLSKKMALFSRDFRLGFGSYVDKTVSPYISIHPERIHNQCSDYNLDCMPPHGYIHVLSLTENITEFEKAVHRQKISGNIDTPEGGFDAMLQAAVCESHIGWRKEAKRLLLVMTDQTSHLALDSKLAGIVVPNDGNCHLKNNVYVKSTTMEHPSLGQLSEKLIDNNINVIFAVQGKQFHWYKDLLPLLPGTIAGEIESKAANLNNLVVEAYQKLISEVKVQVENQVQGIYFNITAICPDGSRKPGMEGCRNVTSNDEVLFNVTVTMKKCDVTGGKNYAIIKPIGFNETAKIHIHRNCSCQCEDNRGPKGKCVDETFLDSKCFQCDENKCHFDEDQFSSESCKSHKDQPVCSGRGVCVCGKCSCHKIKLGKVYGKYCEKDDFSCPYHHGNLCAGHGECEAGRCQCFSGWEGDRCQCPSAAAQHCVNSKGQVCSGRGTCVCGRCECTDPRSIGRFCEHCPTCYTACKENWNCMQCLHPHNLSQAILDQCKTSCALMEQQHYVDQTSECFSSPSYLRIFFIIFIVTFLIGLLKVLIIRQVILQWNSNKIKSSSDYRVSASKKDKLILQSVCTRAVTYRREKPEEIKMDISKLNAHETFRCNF

The target of test [2] is T2, human integrin β8 swap construct RKMALY (SEQ ID NO:129) (human, UniProt P26012 43-769).
T2 sequence: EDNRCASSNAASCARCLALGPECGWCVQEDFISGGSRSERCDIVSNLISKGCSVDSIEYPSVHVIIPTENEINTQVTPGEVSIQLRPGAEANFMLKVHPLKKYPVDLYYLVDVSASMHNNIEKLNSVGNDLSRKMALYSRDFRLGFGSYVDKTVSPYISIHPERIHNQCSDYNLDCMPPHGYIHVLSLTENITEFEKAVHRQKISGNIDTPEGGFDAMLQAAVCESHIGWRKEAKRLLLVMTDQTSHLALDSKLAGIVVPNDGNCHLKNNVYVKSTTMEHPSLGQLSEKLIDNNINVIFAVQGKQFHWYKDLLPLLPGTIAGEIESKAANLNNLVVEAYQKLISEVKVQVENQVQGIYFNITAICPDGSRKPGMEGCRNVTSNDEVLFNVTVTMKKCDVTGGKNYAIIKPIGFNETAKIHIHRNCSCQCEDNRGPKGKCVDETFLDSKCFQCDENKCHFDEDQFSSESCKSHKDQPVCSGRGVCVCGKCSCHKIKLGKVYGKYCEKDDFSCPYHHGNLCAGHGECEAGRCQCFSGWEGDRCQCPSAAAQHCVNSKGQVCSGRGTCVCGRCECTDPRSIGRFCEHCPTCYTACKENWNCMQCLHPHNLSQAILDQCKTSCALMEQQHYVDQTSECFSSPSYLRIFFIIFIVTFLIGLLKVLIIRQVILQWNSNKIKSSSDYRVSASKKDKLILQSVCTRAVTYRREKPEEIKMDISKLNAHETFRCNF

Test [3] addresses T3, human integrin β8 swap construct KKMAFY (SEQ ID NO:131) (human, UniProt P26012 43-769).
T3 sequence: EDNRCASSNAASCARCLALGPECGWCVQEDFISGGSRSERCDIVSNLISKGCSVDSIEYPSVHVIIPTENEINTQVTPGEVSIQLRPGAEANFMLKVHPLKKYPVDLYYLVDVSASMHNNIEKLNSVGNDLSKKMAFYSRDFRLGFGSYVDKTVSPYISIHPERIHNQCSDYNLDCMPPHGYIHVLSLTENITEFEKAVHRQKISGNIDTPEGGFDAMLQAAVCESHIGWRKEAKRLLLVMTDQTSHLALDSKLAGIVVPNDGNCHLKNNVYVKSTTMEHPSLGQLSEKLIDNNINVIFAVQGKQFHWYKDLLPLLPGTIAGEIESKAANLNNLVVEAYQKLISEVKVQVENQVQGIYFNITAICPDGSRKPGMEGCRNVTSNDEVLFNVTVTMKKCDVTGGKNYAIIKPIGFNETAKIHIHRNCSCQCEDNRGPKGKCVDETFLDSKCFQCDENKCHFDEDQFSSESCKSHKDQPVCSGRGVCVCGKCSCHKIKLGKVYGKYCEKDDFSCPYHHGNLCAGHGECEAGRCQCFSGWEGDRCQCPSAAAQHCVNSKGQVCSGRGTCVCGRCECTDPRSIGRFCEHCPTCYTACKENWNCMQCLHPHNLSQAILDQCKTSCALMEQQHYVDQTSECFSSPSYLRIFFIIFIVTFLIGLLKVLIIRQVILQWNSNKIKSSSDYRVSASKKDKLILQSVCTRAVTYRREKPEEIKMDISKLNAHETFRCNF

B1: 14E5 antibody (antibody, V domains shown)
VH: EVQLQQSGAELMKPGASVKISCKATGYTFSTYWIEWIKQRPGHGLEWIGHILPGSVITNYNEKFKGKAAITADTSSNTSYMQLSSLTSEDSAVYYCARWGWDSYWGQGTLVTVSS
VL: DIEMTQSPSSLSASLGDRVTISCSTSQDISSSLNWYQQKPDGTVTLLIYYTSNLHSGVPSRFSGSGSGTDYSLTISNLEPEDIATYYCQQYSKLPYTFGGGTKLEIKR
notes: Mouse hybridoma antibody; also called hybridoma clone 14E5
With B1, the “% positive” value amounted to 1% in test [1], 1% in test [2] and 6% in test [3].

B2: 11E8 antibody (antibody, V domains shown)
VH: EVQLQQSGPELMKTGASVKISCKATGYTFSSYWIEWVKQRPGHGLEWIGDILPGSGTTNYNEKFKGRATVTADRSSNTAYMQLSSLTYGDSAVYYCATWGWDTYWDQGTSVTVSS
VL: DIVMTQSPSSLSASLGDRVTISCSASQGISNYLNWYQQKPDGTVKLLIYYTSSLHSGVPSRFSGSGSGTDYSLTISNLEPEDIATYYCQQYSNLPYTFGGGTKLEIKR
notes: Mouse hybridoma antibody
For the molecule B2, the “% positive” value turned out to be 3% in test [1], 4% in test [2] and 31% in test [3].

B3: 37E1B5 antibody (antibody, V domains shown)
VH: EVQLVESGGGLVQPGGSLNLSCAVSGFVFSRYWMSWVRQAPGKGLEWIGEINPDSSTINYTSSLKDKFIISRDNAKNTLYLQMNKVRSEDTALYYCACLITTEDYWGQGTSVTVSS
VL: QIVLTQSPSSMYASLGERVTIPCKASQDINSYLSWFQQKPGKSPKTLIYYANRLVDGVPSRFSGSGSGQDYSLTISSLEYEDMGIYYCLQYDEFPYTFGGGTKLEIK
As to B3, the “% positive” value in test [1] amounted to 31%; in test [2] it was 14%; in test [3] it was 3%.
